Article PMC3737334 (RNA Biology, 2013)

T1: Csa5 (UniProt Q97Y90 1-150)
T1 sequence: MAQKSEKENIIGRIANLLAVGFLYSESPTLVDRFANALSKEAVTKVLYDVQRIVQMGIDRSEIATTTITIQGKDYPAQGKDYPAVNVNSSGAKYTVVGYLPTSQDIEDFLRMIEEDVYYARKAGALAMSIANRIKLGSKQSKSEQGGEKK

T2: Cas5 (Cas5/Cas7 core complex);Cas7 (Cas5/Cas7 core complex) (Sulfolobus solfataricus P2?;Sulfolobus …, UniProt Q97Y92;Q97Y91 1-240;1-321, |)
T2 sequence 1: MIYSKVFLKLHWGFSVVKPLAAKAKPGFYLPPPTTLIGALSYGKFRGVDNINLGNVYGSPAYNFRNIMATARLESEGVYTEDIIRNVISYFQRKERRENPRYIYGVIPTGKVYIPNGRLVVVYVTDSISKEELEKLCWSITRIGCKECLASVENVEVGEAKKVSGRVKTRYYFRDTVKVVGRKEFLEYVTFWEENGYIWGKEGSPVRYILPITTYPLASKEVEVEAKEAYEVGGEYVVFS
T2 sequence 2: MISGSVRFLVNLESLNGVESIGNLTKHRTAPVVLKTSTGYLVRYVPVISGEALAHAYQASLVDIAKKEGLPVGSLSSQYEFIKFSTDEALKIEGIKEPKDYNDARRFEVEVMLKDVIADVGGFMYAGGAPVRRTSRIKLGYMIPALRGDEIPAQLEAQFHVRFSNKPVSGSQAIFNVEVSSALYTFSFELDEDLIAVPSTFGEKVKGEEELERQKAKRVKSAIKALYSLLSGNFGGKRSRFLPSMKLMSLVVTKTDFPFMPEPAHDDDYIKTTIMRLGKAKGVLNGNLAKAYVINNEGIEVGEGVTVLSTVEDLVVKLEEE


Tests used:
[1] = biological target: the molecule itself; assay: crystal structure
[2] = biological target: the molecule itself; assay: SEC
[3] = biological target: T1, Csa5; assay: fluorescence anisotropy
[4] = biological target: T2, Cas5 (Cas5/Cas7 core complex);Cas7 …; assay: fluorescence anisotropy

Binder | binding result [3] | also measured
Sso1398 (Csa5 paralog), selenomethionyl derivative (natural protein, S. solfataricus, selenomethionine in place of methionine) MEASEPVAETISKRFWTLIKMLRFYVVLRRFGYIDPLIYSIDPKQIKDVLSEALREFVSYTSSSSSRSIVIYDDPKNPVTAQAPCLVVAKRDEIPQNFPSIYRYTIYKIDKSSEYCISPLVVNDKYATLITPNESVIKEFFDKLDSNIQYARVLASLAVGGE | – | binding result [1]: binds
Sso1398 wild type (Csa5 paralog) (natural protein, S. solfataricus) MEASEPVAETISKRFWTLIKMLRFYVVLRRFGYIDPLIYSIDPKQIKDVLSEALREFVSYTSSSSSRSIVIYDDPKNPVTAQAPCLVVAKRDEIPQNFPSIYRYTIYKIDKSSEYCISPLVVNDKYATLITPNESVIKEFFDKLDSNIQYARVLASLAVGGE | – | binding result [2]: binds
crRNA (spacer 26, CRISPR locus A) (ssRNA) RNA: AUUGAAAGACCAUACCCAACUUCUAACAACGUCGUUCUUAACAACGGAUUAAUCCCAAAA | no binding | Kd [4]: 1380 ± 140 nM
CCTCGAGGGATCCGTCCTAGCAAGCCGCTGCTACCGGAAGCTTCTGGACC (ssDNA) [non-target ssDNA] | no binding | –
crRNA/protospacer heteroduplex (DNA:RNA) RNA: AUUGAAAGACCAUACCCAACUUCUAACAACGUCGUUCUUAACAACGGAUUAAUCCCAAAA DNA: GATCCTCTCCACGTTGTTAAGAACGACGTTGTTAGAAGTTGGGTATGGTTGGCTG | no binding | –
